In patent US20210340271A1 (PROMAB BIOTECHNOLOGIES, published 2021):

Key:
[1] = molecular target: T1, CD18 on HEK293-CD18 cells (UniProt P05107 23-769); test: immunofluorescent staining of transfected HEK293 cells
T1 construct: whole, on cells; also called negative control protein CD18

[2] = molecular target: negative unrelated control protein; test: ELISA, negative control antigen

T1 sequence (P05107 23-769 limits assumed): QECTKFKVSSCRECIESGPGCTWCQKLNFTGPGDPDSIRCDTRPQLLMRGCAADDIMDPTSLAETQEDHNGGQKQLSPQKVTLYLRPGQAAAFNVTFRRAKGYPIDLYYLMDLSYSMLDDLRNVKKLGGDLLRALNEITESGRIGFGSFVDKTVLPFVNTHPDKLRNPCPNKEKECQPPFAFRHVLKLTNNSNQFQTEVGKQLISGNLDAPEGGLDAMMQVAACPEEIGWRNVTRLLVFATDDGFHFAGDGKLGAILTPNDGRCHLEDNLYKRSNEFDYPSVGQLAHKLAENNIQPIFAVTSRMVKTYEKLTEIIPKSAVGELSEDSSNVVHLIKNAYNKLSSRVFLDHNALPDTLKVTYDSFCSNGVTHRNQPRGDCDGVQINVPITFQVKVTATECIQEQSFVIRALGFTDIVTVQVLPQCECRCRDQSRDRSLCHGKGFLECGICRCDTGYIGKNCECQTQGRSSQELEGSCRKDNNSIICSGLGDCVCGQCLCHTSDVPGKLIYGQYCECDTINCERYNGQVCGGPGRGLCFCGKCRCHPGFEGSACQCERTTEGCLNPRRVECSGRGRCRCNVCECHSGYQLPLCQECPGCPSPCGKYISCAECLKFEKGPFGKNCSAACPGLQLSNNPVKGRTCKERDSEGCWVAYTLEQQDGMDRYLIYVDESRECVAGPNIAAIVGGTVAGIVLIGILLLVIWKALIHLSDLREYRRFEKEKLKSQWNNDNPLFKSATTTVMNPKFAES

- binding result [1]: no binding
- OD405 [2]: 0.098 OD405
B1: mouse monoclonal anti-human CD37 antibody, clone 2B8D12 (antibody, IgG1, V domains shown)
VH: QVKLDETGGGLVQPGRPMKLSCVASGFTFSDYWMNWVRQSPEKGLEWVAQIRDKPYNYETFYSDSVKGRFTISRDDSKSSVYLQMNNLGAEDMGIYYCTGSFAYWGQGTLVTVSA
VL: DIQMTQSPASLSASEGETVTITCRASGNIHNYLAWYQQKQGKSPQLLVYNAKTLPDGVPSRVSGSGSGTQYSLKINNLQPEDFGNYYCQQYWSTPYTFGGGSRLEIKR
notes: Mouse hybridoma antibody; also called antibody CD37; CD37 antibody (2B8D12)
